These results are taken from article PMC8554075 (Immunity, 2021).

Assay [1] addresses RaTG13 receptor-binding domain (Bat coronavirus RaTG13, UniProt A0ABF7PLN6).
For assay [2], the target named is T1, SARS-CoV-2 receptor-binding domain (SARS-CoV-2, UniProt P0DTC2).
Assay [3] deals with SARS-CoV-1 receptor-binding domain (SARS-CoV (SARS-CoV-1), isolate not …, UniProt P59594).
Assay [4] addresses T1, SARS-CoV-2 receptor-binding domain. Kind of assay: cell-based or functional assay.

B1: AB-3545 (antibody, V domains shown)
VH: QVQLQESGPGLVKPSETLSLTCAVSGGSISNYHWNWIRQPPGKGLEWIGYIYYSGRTNYNPTLKSRVNISVDTSKNQFSLKLSSVTAADTAVYYCAREMRRGYSGYDDWDLYAFDIWGQGTMVTVSS
VL: DIQLTQSPSFLSTYVGDRVTITCRASQGISTYLAWYQQKPGKAPKLLIYAAFTLQSGVPSRFSGSGSGTEFTLTISSLQPEDFATYYCQQLNSYPHTFGQGTKLEIK
Regarding B1, the binding result in assay [1], in assay [2] and in assay [3] was “binds” throughout.

B2: 3645 (antibody, V domains shown)
VH: QVQLQESGPGLVKPSETLSLTCAVSGGSISSYYWSWIRQPPGKGLEWIGYIYYSGRINYNPSLKSRVTISVDTSKNQFSLKLSSVTAADTAVYYCAREMRRGYSGYDDWDLYAFDIWGQGTMVTVSS
VL: DIQLTQSPSFLSTSVGDRVTITCRASQGISSYLAWYQQKPGKAPKLLIYAASTLQSGVPSRFSGSGSGTEFTLTISSLQPEDFATYYCQQLNSYPHTFGQGTKLEIK
As for B2, the binding result in assay [1], in assay [2] and in assay [3] was “binds” each time.

B3: AB-3571 (antibody, V domains shown)
VH: QVQLQESGPGLVKPSETLSLTCAVSGGSISSYHWNWIRQPPGKGLEWIGYIYYSGRTNYNPTLKSRVNISVDTSKNQFSLKLSSVTAADTAVYYCAREMRRGYSGYDYWDLYAFDIWGQGTMVTVSS
VL: DIQLTQSPSFLSTSVGDRVTITCRASQDISTYLAWYQQKPGKAPKLLIYAASTLQSGVPSRFSGSGSGTEFTLTISSLQPEDFVTYYCQQLNSYPHTFGQGTKLEIK
Consider B3, for which the binding result in assay [1], in assay [2] and in assay [3] was “binds” throughout.

B4: 3881 (antibody, V domains shown)
VH: QVQLQGSGPGLVKPSETLSLTCTVSGGSISSYYWTWIRQPPGKGLEWIGYIYYSGITTYNPSLKSRITISVDTSKNQFSLKLRSVTAADTAVYYCAREMRRGYSGYDYWDLYPFDIWGQGTMVTVSS
VL: DIQLTQSPSFLSASVGDRVTITCRASQGISSYLAWYQQKPGKAPKLLIYSASTLQSGVPSKFSGSGSGTEFTLTISSLQPEDFATYYCQQLNSYPHTFGQGTKLEIK
As for B4, the binding result in assay [1], in assay [2] and in assay [3] was “binds” each time.

B5: 3475 (antibody, V domains shown)
VH: QVQLQESGPGLVKPSETLSLTCTVSGDSISSYHWNWIRQPPGKGLEWIGYIYYSGSTNYNPSLKSRVTISVHTSKNQFSLRLSSVTAADTAVYYCAKEMRRGYSGYDYWDLYAFDIWGQGTMVTVSS
VL: DIQLTQSPSFLSASVGDRVTVTCRASQGISSYLAWYQQKPGKAPKLLIYAASTLQSGVPSRFSGSGSGTEFTLTISSLQPEDFATYYCQQLNSYPHTFGQGTKLEIK
Consider B5, for which the binding result in assay [1], in assay [2] and in assay [3] was “binds” throughout.

B6: 3476 (antibody, V domains shown)
VH: QVQLQESGPGLVKPSETLSLTCAVSGGSISSYYWSWIRQPPGKGLEWIGYIYYSGRTNYNPSLKSRVTISVDTSKNQFSLKLSSVTAADTAVYYCAREMRRGYSGYDDWDLYAFDIWGQGTMVTVSS
VL: DIQLTQSPSFLSTSIGDRVTITCRASQGISSYLAWYQQKPGKAPNLLIYAASTLQSGVPSRFSGSGSGTEFTLTISSLQPEDFATYYCQQLNSYPHTFGQGTKLEIK
As to B6, the binding result in assay [1], in assay [2] and in assay [3] was “binds” in each case.

B7: 3517 (antibody, V domains shown)
VH: QVQLQESGPGLVKPSETLSLTCTVSGGSISSYHWNWIRQPPGKGLEWIGYIYYSGSTNYNPSLKSRVSISVDTSKNQFSLKLSSVTAADTAVYYCAREMRRGYSGYDYWDLYAFDIWGQGTMVTVSS
VL: DIQLTQSPSFLSASVRDRVTITCRASQDISSYLAWYQQKPGKAPKLLIYAASTLQSGVPSRFSGSGSGTEFTLTISSLQPEDFATYYCQQLNNYPHTFGQGTKLEIK
Turning to B7, the binding result in assay [1], in assay [2] and in assay [3] was “binds” each time.

B8: 3490 (antibody, V domains shown)
VH: QVQLQESGPGLVKPSETLSLTCAVSGGSISSYYWSWIRQPPGKGLEWIGYIYYSGRTNYNPSLKSRVTISVDTSKNQFSLKLSSVTAADTAVYYCAREMRRGYSGYDDWDLYAFDIWGQGTMVTVSS
VL: DIQLTQSPSFLSTSVGDRVTITCRASQGISSYLAWYQQKPGKAPKLLIYAASTLQSGVPSRFSGSGSGTEFTLTISSLQPEDFATYYCQQFNSYPHTFGQGTKLEI
For B8, the binding result in assay [1], in assay [2] and in assay [3] was “binds” throughout.

B9: 3636 (antibody, V domains shown)
VH: QVQLQESGPGLVKPSETLSLTCTVSGGSISSYHWNWIRQPPGKGLEWIGYIYYSGSTNYNPSLKSRVSISVDTSKNQFSLKLSSVTAADTAVYYCAREMRRGYSGYDYWDLYAFDIWGQGTMVTVSS
VL: DIQLTQSPSFLSASVRDRVTITCRASQGISSYLAWYQQKPGKAPKLLIYAASTLQSGVPSRFSGSGSGTEFTLTISSLQPEDFATYYCQQLNNYPHTFGQGTKLEIK
For B9, the binding result in assay [1], in assay [2] and in assay [3] was “binds” each time.

B10: 3521 (antibody, V domains shown)
VH: QVQLQESGPGLVKPSETLSLTCTVSGGSISSYHWSWIRQPPGKGLEWIGYIYYSGSTIYNPSLKSRVSISVDTSQNQFSLKLSSVTAADTAVYYCAREMPRGYSGYDYWDLYAFDIWGQGTMVTVSS
VL: DIQLTQSPSFLSASVRDRVTITCRASQGISSYLAWYQQKPGKAPKLLIYAASTLQSGVPSRFSGSGSGTEFTLTISSLQPEDFATYYCQQLNNYPHTFGQGTKLEIK
Turning to B10, the binding result in assay [1], in assay [2] and in assay [3] was “binds” throughout.

B11: AB-3492 (antibody, V domains shown)
VH: QVQLQESGPGLVKPSETLSLTCAVSGGSISSYYWNWIRQPPGKGLEWIGYIYYSGRTNYNPSLKSRVTISVDTSKNQFSLKLSSVTAADTAVYYCAREMRRGYSGYDDWDLYAFDIWGQGTMVTVSS
VL: DIQLTQSPSFLSTSVGDRVTITCRASQGISSYLAWYQQKPGKAPKLLIYAASTLQSGVPSRFSGSGSGTEFTLTISSLQPEDFATYYCQQLNSYPHTFGQGTKLEIK
For B11, the binding result in assay [1], in assay [2] and in assay [3] was “binds” each time.

B12: 3577 (antibody, V domains shown)
VH: QVQLQESGPGLVKPSETLSLTCTVSGGSISSYHWNWIRQPPGKGLEWIGYIYYSGNTNYNPSLKSRVSISADTSKNQFSLKLSSVTAADTAVYYCAREMRRGYSGYDYWDLYAFDIWGQGTMVTVSS
VL: DIQLTQSPSFLSASVGDRVTITCRASQGISSYLAWYQQKPGKAPKLLIYTASTLQSGVPSRFSGSGSGTEFTLTISSLQPEDFATYYCQQLNSYPHTFGQGTKLEIK
For the molecule B12, the binding result in assay [1], in assay [2] and in assay [3] was “binds” each time.

B13: 3581 (antibody, V domains shown)
VH: QVQLQESGPGLVKPSETLSLTCTVSGGSISTYYWSWTRQPPGKGLEWIGNIYYSGSTIYNPSLKSRVTISVDTSKNQFSLKLTSVTAADTAVYYCAREMRRGYSGYDYWDLYAFDIWGQGTMVTVSS
VL: DIQLTPSPSFLSASVGDRVTITCRASQGISSYLAWYQQTPGKAPKLLIYAASTLQSGVPSRFSGSGSGTEFTLTISSLQPEDFATYYCQQLNSYPHTFGQGTKLEIK
With B13, the binding result in assay [1], in assay [2] and in assay [3] was “binds” throughout.

B14: 3513 (antibody, V domains shown)
VH: QVQLQESGPGLVKPSETLSLTCTVTGGSINNYFWSWIRQPPGKGLEWIGNIYYSGNTIYNPSLKSRVTLSIDTSKNQFSLRLTSVTAADTAVYYCAREMRRGYSGYDYWDLYAFDVWGQGTMVTVSS
VL: DIQLTQSPSFLSASVQDRVTITCRASQDISSYLAWYQQKPGKAPKLLIYAASTLQSGVPSRFSGSGSGTEFTLTISSLQPEDFATYYCQQLNSYPHTFGQGTKLEIK
As to B14, the binding result in assay [1], in assay [2] and in assay [3] was “binds” in each case.

B15: 3606 (antibody, V domains shown)
VH: QVQLQESGPGLVKPSETLSLTCAVSGGSISSYYWSWIRQPPGKGLEWIGYIYYSGRTNYNSSLKSRVTISVDTSKNQFSLKLSSVTAADTAVYYCAREMRRGYSGYDDWDLYAFDIWGQGTMVTVSS
VL: DIQLTQSPSFLSTSVGDRVTITCRASQGISSYLAWYQQKPGKAPKLLIYAASTLQSGVPSRFSGSGSGTDFTLTISSLQPEDFATYYCQQLNSYPHTFGQGTKLEIK
Consider B15, for which the binding result in assay [1], in assay [2] and in assay [3] was “binds” throughout.

B16: 3573 (antibody, V domains shown)
VH: QVLLQESGPGLVKPSETLSLTCAVSGGSISSYYWSWIRQPPGKGLEWIGYIYYSGRTNYNSSLKSRVTISVDTSKNQFSLKLSSVTAADTAVYYCAREMRRGYSGYDDWDLYAFDIWGQGTMVTVSS
VL: DIQLTQSPSFLSTSVGDRVTITCRASQGISSYLAWYQQKPGKAPKLLIYAASTLQSGVPSRFSGSGSGTDFTLTISSLQPEDFATYYCQQLNSYPHTFGQGTKLEIK
For B16, the binding result in assay [1], in assay [2] and in assay [3] was “binds” throughout.

B17: AB-1987, expressed as human IgG1 (antibody, V domains shown)
VH: QVQLVESGGGVVQPGRSLRLSCAASGFTFSSYGMHWVRQAPGKGLEWAAVIWYDGSNKYYADSVKGRFTISRDNSKNTLYLQMNSLRAEDTAVYYCARESSGGFDYWGQGTLVTVSS
VL: NIQMTQSPSAMSASVGDRVTITCRARQGISNFLAWFQQKPGKVPKHLVYAASSLRSGVPSRFSGSGSGTEFTLTISSLQPEDFATYYCLQHNNYPYTFGQGTKLEIK
For B17, the “neutralization of live CoV2 virus, Vero E6 cells (blocks RBD-ACE2)” value in assay [4] was 0.054 µg/mL.
